According to article PMC314469, “Protein Interaction Networks by Proteome Peptide Scanning” (PLoS Biology, 2004):

T1: amphyphisin SH3 (AMPH_HUMAN), P49418
T1 chain: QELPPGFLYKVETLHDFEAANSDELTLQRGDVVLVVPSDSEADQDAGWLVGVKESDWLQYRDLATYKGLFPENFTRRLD


What was measured:
[1] = molecular target: T1, amphyphisin SH3 (AMPH_HUMAN), P49418; assay: SPOT array
[2] = molecular target: endophilin SH3 (SH3G2_HUMAN), Q99962; assay: SPOT array

Binder | normalised SPOT signal, Boehringer light units (BLU); mean over the file's lines of this peptide [1] | normalised SPOT signal, Boehringer light units (BLU); mean over the file's lines of this peptide [2]
APVPLLRPHRPSGP [O15450 763-776] | 1350 | 704
LVNTLKRPKRPPLR [Q9Y2E4 57-70] | 408 | 48
LVPVPARPPLTRGQ [Q96EY9 124-138] | 2950 | 3430
LVSIPERPLRPPSE [Q9Y2W3 70-83] | 3540 | 310
LVSRLRRPVSEVSG [Q96Q82 70-83] | 112 | 96.8
LVVDPRRPFRKLNA [Q9H4M9 114-127] | 2940 | 179
LWPPLYRPRRDAFE [Q13635 1311-1324] | 1260 | 3920
LWRQPRRPIRIQQR [Q08493 32-45] | 3170 | 1000
LWRRFGRPAKSSTP [Q9NS62 435-448] | 105 | 114
LYGLLQRPVRLALG [Q9BZJ7 289-302] | 1270 | 1110
LYLRLKRPKPERDL [P11230 356-369] | 42.9 | 70.6
AQARLKRPLKSLDG [Q9NXU2 68-81] | 117 | 109
LYRFPGKPPTYVTD [Q9NU18 93-107] | 39 | 157
LYRGLSRPIRRTTQ [Q9H455 29-42] | 789 | 234
LYWLLRRPSGVVLS [Q96DN1 10-23] | 180 | 158
MAASLKRPDSGATG [P20849 777-790] | 27.1 | 34.5
MAGLPFRPPWGSLS [Q8WUS6 527-541] | 73 | 4340
